The values below come from patent US20260265379A1.

The target in this test is BTN3A expressed at the cell surface (human), O00481. Briefly: cell-based or functional assay.
Chain of BTN3A expressed at the cell surface (human), O00481 (O00481 30-513): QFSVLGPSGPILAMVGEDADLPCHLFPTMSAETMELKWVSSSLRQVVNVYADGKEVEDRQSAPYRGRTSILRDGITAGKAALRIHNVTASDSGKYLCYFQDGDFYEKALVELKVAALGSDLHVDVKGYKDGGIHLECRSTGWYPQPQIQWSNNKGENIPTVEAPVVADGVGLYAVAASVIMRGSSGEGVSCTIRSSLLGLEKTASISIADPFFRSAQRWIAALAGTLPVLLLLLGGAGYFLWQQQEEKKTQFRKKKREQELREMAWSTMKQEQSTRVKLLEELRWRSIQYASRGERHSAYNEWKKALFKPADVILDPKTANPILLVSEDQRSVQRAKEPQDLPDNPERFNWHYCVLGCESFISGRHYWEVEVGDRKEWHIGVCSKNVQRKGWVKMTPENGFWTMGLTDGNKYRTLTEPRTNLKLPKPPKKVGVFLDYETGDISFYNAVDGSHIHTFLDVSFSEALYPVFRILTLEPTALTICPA

B1: bsAb059 (bispecific antibody)
heavy: QVQLVQSGVEVKKPGASVKVSCKASGYTFTNYYMYWVRQAPGQGLEWMGGINPSNGGTNFNEKFKNRVTLTTDSSTTTAYMELKSLQFDDTAVYYCARRDYRFDMGFDYWGQGTTVTVSSASTKGPSVFPLAPSSKSTSGGTAALGCLVKDYFPEPVTVSWNSGALTSGVHTFPAVLQSSGLYSLSSVVTVPSSSLGTQTYICNVNHKPSNTKVDKRVEPKSCDKTHTCPPCPAPEFEGGPSVFLFPPKPKDTLMISRTPEVTCVVVDVSHEDPEVKFNWYVDGVEVHNAKTKPREEQYNSTYRVVSVLTVLHQDWLNGKEYKCKVSNKALPASIEKTISKAKGQPREPQVYTLPPSREEMTKNQVSLTCLVKGFYPSDIAVEWESNGQPENNYKTTPPVLDSDGSFFLYSKLTVDKSRWQQGNVFSCSVMHEALHNHYTQKSLSLSPG
light: QVQLVQSGAEVKKPGASVKLSCKASGYIFTRYYMYWVKQRPGQGLEWIGEINPNNGGTKFNEKFKNRATLTVDKSISTAYMELSRLRSDDTAVYYCSREDDYDGTPFAMDYWGQGTLVTVSSGGGGSGGGGSGGGGSGGGGSDIQMTQSPSSLSASVGDRVTITCHASQNINVWLSWYQQKPGKAPKLLIYKASNLHTGVPSRFTGSGSGTDFTFTISSLQPEDIATYYCQQGQTYPYTFGQGTKLEIKGGGGSGGGGSGGGGSGGGGSEIVLTQSPATLSLSPGERATLSCRASKGVSTSGYSYLHWYQQKPGQAPRLLIYLASYLESGVPARFSGSGSGTDFTLTISSLEPEDFAVYYCQHSRDLPLTFGGGTKVEIKRTVAAPSVFIFPPSDEQLKSGTASVVCLLNNFYPREAKVQWKVDNALQSGNSQESVTEQDSKDSTYSLSSTLTLSKADYEKHKVYACEVTHQGLSSPVTKSFNRGEC
The molecule B1 registered a Jurkat-Vy9Vo2 TCR MOP activation at 0.5 nM (fold-change to medium) of 1.1 and a Jurkat-Vy9Vo2 TCR MOP activation at 5 nM (fold-change to medium) of 1.1.

B2: bsAb060 (bispecific antibody)
heavy: QVQLVQSGVEVKKPGASVKVSCKASGYTFTNYYMYWVRQAPGQGLEWMGGINPSNGGTNFNEKFKNRVTLTTDSSTTTAYMELKSLQFDDTAVYYCARRDYRFDMGFDYWGQGTTVTVSSASTKGPSVFPLAPSSKSTSGGTAALGCLVKDYFPEPVTVSWNSGALTSGVHTFPAVLQSSGLYSLSSVVTVPSSSLGTQTYICNVNHKPSNTKVDKRVEPKSCDKTHTCPPCPAPEFEGGPSVFLFPPKPKDTLMISRTPEVTCVVVDVSHEDPEVKFNWYVDGVEVHNAKTKPREEQYNSTYRVVSVLTVLHQDWLNGKEYKCKVSNKALPASIEKTISKAKGQPREPQVYTLPPSREEMTKNQVSLTCLVKGFYPSDIAVEWESNGQPENNYKTTPPVLDSDGSFFLYSKLTVDKSRWQQGNVFSCSVMHEALHNHYTQKSLSLSPG
light: DIQMTQSPSSLSASVGDRVTITCHASQNINVWLSWYQQKPGKAPKLLIYKASNLHTGVPSRFTGSGSGTDFTFTISSLQPEDIATYYCQQGQTYPYTFGQGTKLEIKGGGGSGGGGSGGGGSGGGGSQVQLVQSGAEVKKPGASVKLSCKASGYIFTRYYMYWVKQRPGQGLEWIGEINPNNGGTKFNEKFKNRATLTVDKSISTAYMELSRLRSDDTAVYYCSREDDYDGTPFAMDYWGQGTLVTVSSGGGGSGGGGSGGGGSGGGGSEIVLTQSPATLSLSPGERATLSCRASKGVSTSGYSYLHWYQQKPGQAPRLLIYLASYLESGVPARFSGSGSGTDFTLTISSLEPEDFAVYYCQHSRDLPLTFGGGTKVEIKRTVAAPSVFIFPPSDEQLKSGTASVVCLLNNFYPREAKVQWKVDNALQSGNSQESVTEQDSKDSTYSLSSTLTLSKADYEKHKVYACEVTHQGLSSPVTKSFNRGEC
The molecule B2 gave a Jurkat-Vy9Vo2 TCR MOP activation at 0.5 nM (fold-change to medium) of 1.1 and a Jurkat-Vy9Vo2 TCR MOP activation at 5 nM (fold-change to medium) of 1.1.

B3: bsAb003 (bispecific antibody, human IgG1, kappa)
heavy: QVQLVQSGAEVKKPGASVKLSCKASGYIFTRYYMYWVKQRPGQGLEWIGEINPNNGGTKFNEKFKNRATLTVDKSISTAYMELSRLRSDDTAVYYCSREDDYDGTPFAMDYWGQGTLVTVSSASTKGPSVFPLAPSSKSTSGGTAALGCLVKDYFPEPVTVSWNSGALTSGVHTFPAVLQSSGLYSLSSVVTVPSSSLGTQTYICNVNHKPSNTKVDKRVEPKSCDKTHTCPPCPAPEFEGGPSVFLFPPKPKDTLMISRTPEVTCVVVDVSHEDPEVKFNWYVDGVEVHNAKTKPREEQYNSTYRVVSVLTVLHQDWLNGKEYKCKVSNKALPASIEKTISKAKGQPREPQVYTLPPSREEMTKNQVSLTCLVKGFYPSDIAVEWESNGQPENNYKTTPPVLDSDGSFFLYSKLTVDKSRWQQGNVFSCSVMHEALHNHYTQKSLSLSPGGGGGSGGGGSGGGGSGGGGSEVQLVESGGGLVQPGGSLRLSCAASGFTFSRYWMSWVRQAPGKGLEWVANIKQDGSEKYYVDSVKGRFTISRDNAKNSLYLQMNSLRAEDTAVYYCAREGGWFGELAFDYWGQGTLVTVSSGGGGSGGGGSGGGGSGGGGSEIVLTQSPGTLSLSPGERATLSCRASQRVSSSYLAWYQQKPGQAPRLLIYDASSRATGIPDRFSGSGSGTDFTLTISRLEPEDFAVYYCQQYGSLPWTFGQGTKVEIK
light: not shown
Regarding B3, the Jurkat-Vy9Vo2 TCR MOP activation at 0.5 nM (fold-change to medium) was 13.6 and the Jurkat-Vy9Vo2 TCR MOP activation at 5 nM (fold-change to medium) stood at 10.7.

B4: bsAb039 (bispecific antibody, not shown: small tags and cut ends; a dimerising Fc or GST)
heavy (part 1 of 2): QVQLVQSGVEVKKPGASVKVSCKASGYTFTNYYMYWVRQAPGQGLEWMGGINPSNGGTNFNEKFKNRVTLTTDSSTTTAYMELKSLQFDDTAVYYCARRDYRFDMGFDYWGQGTTVTVSS
heavy (part 2 of 2): GGGGSGGGGSGGGGSGGGGSDIQMTQSPSSLSASVGDRVTITCHASQNINVWLSWYQQKPGKAPKLLIYKASNLHTGVPSRFTGSGSGTDFTFTISSLQPEDIATYYCQQGQTYPYTFGQGTKLEIKGGGGSGGGGSGGGGSGGGGSQVQLVQSGAEVKKPGASVKLSCKASGYIFTRYYMYWVKQRPGQGLEWIGEINPNNGGTKFNEKFKNRATLTVDKSISTAYMELSRLRSDDTAVYYCSREDDYDGTPFAMDYWGQGTLVTVSS
heavy: GGGGSGGGGSGGGGSGGGGSDIQMTQSPSSLSASVGDRVTITCHASQNINVWLSWYQQKPGKAPKLLIYKASNLHTGVPSRFTGSGSGTDFTFTISSLQPEDIATYYCQQGQTYPYTFGQGTKLEIKGGGGSGGGGSGGGGSGGGGSQVQLVQSGAEVKKPGASVKLSCKASGYIFTRYYMYWVKQRPGQGLEWIGEINPNNGGTKFNEKFKNRATLTVDKSISTAYMELSRLRSDDTAVYYCSREDDYDGTPFAMDYWGQGTLVTVSS
light: EIVLTQSPATLSLSPGERATLSCRASKGVSTSGYSYLHWYQQKPGQAPRLLIYLASYLESGVPARFSGSGSGTDFTLTISSLEPEDFAVYYCQHSRDLPLTFGGGTKVEIKRTVAAPSVFIFPPSDEQLKSGTASVVCLLNNFYPREAKVQWKVDNALQSGNSQESVTEQDSKDSTYSLSSTLTLSKADYEKHKVYACEVTHQGLSSPVTKSFNRGEC
B4: the Jurkat-Vy9Vo2 TCR MOP activation at 0.5 nM (fold-change to medium) stood at 0.9 and the Jurkat-Vy9Vo2 TCR MOP activation at 5 nM (fold-change to medium) came out at 1.

B5: bsAb053 (bispecific antibody, not shown: small tags and cut ends)
heavy (part 1 of 2): QVQLVQSGVEVKKPGASVKVSCKASGYTFTNYYMYWVRQAPGQGLEWMGGINPSNGGTNFNEKFKNRVTLTTDSSTTTAYMELKSLQFDDTAVYYCARRDYRFDMGFDYWGQGTTVTVSS
heavy (part 2 of 2): GGGGSGGGGSGGGGSGGGGSQVQLVQSGAEVKKPGASVKLSCKASGYIFTRYYMYWVKQRPGQGLEWIGEINPNNGGTKFNEKFKNRATLTVDKSISTAYMELSRLRSDDTAVYYCSREDDYDGTPFAMDYWGQGTLVTVSSGGGGSGGGGSGGGGSGGGGSDIQMTQSPSSLSASVGDRVTITCHASQNINVWLSWYQQKPGKAPKLLIYKASNLHTGVPSRFTGSGSGTDFTFTISSLQPEDIATYYCQQGQTYPYTFGQGTKLEIK
heavy: QVQLVQSGVEVKKPGASVKVSCKASGYTFTNYYMYWVRQAPGQGLEWMGGINPSNGGTNFNEKFKNRVTLTTDSSTTTAYMELKSLQFDDTAVYYCARRDYRFDMGFDYWGQGTTVTVSS
light: EIVLTQSPATLSLSPGERATLSCRASKGVSTSGYSYLHWYQQKPGQAPRLLIYLASYLESGVPARFSGSGSGTDFTLTISSLEPEDFAVYYCQHSRDLPLTFGGGTKVEIKRTVAAPSVFIFPPSDEQLKSGTASVVCLLNNFYPREAKVQWKVDNALQSGNSQESVTEQDSKDSTYSLSSTLTLSKADYEKHKVYACEVTHQGLSSPVTKSFNRGEC
In the case of B5, the Jurkat-Vy9Vo2 TCR MOP activation at 0.5 nM (fold-change to medium) was determined as 1.2 and the Jurkat-Vy9Vo2 TCR MOP activation at 5 nM (fold-change to medium) is 1.1.

B6: bsAb042 (bispecific antibody, not shown: small tags and cut ends; a dimerising Fc or GST)
heavy 1: QVQLVQSGVEVKKPGASVKVSCKASGYTFTNYYMYWVRQAPGQGLEWMGGINPSNGGTNFNEKFKNRVTLTTDSSTTTAYMELKSLQFDDTAVYYCARRDYRFDMGFDYWGQGTTVTVSS
heavy 2: QVQLVQSGAEVKKPGASVKLSCKASGYIFTRYYMYWVKQRPGQGLEWIGEINPNNGGTKFNEKFKNRATLTVDKSISTAYMELSRLRSDDTAVYYCSREDDYDGTPFAMDYWGQGTLVTVSSGGGGSGGGGSGGGGSGGGGSDIQMTQSPSSLSASVGDRVTITCHASQNINVWLSWYQQKPGKAPKLLIYKASNLHTGVPSRFTGSGSGTDFTFTISSLQPEDIATYYCQQGQTYPYTFGQGTKLEIKGGGGSGGGGSGGGGSGGGGS
light: EIVLTQSPATLSLSPGERATLSCRASKGVSTSGYSYLHWYQQKPGQAPRLLIYLASYLESGVPARFSGSGSGTDFTLTISSLEPEDFAVYYCQHSRDLPLTFGGGTKVEIKRTVAAPSVFIFPPSDEQLKSGTASVVCLLNNFYPREAKVQWKVDNALQSGNSQESVTEQDSKDSTYSLSSTLTLSKADYEKHKVYACEVTHQGLSSPVTKSFNRGECGGGGSGGGGSGGGGSGGGGSDIQMTQSPSSLSASVGDRVTITCHASQNINVWLSWYQQKPGKAPKLLIYKASNLHTGVPSRFTGSGSGTDFTFTISSLQPEDIATYYCQQGQTYPYTFGQGTKLEIKGGGGSGGGGSGGGGSGGGGSQVQLVQSGAEVKKPGASVKLSCKASGYIFTRYYMYWVKQRPGQGLEWIGEINPNNGGTKFNEKFKNRATLTVDKSISTAYMELSRLRSDDTAVYYCSREDDYDGTPFAMDYWGQGTLVTVSS
Molecule B6 came in with a Jurkat-Vy9Vo2 TCR MOP activation at 0.5 nM (fold-change to medium) of 1.1 and a Jurkat-Vy9Vo2 TCR MOP activation at 5 nM (fold-change to medium) of 1.

B7: bsAb011 (bispecific antibody)
heavy: QVQLVQSGAEVKKPGASVKLSCKASGYIFTRYYMYWVKQRPGQGLEWIGEINPNNGGTKFNEKFKNRATLTVDKSISTAYMELSRLRSDDTAVYYCSREDDYDGTPFAMDYWGQGTLVTVSSASTKGPSVFPLAPSSKSTSGGTAALGCLVKDYFPEPVTVSWNSGALTSGVHTFPAVLQSSGLYSLSSVVTVPSSSLGTQTYICNVNHKPSNTKVDKRVEPKSCDKTHTCPPCPAPEFEGGPSVFLFPPKPKDTLMISRTPEVTCVVVDVSHEDPEVKFNWYVDGVEVHNAKTKPREEQYNSTYRVVSVLTVLHQDWLNGKEYKCKVSNKALPASIEKTISKAKGQPREPQVYTLPPSREEMTKNQVSLTCLVKGFYPSDIAVEWESNGQPENNYKTTPPVLDSDGSFFLYSKLTVDKSRWQQGNVFSCSVMHEALHNHYTQKSLSLSPG
light: not shown
Consider B7, for which the Jurkat-Vy9Vo2 TCR MOP activation at 0.5 nM (fold-change to medium) is 12.2 and the Jurkat-Vy9Vo2 TCR MOP activation at 5 nM (fold-change to medium) amounted to 9.8.
